B1: ZNF207 (parent)
chain: FPSAGQAQAAVQGPVGTDFKPLNS
B2: PLAGL1 (parent)
chain: DPNKMAFGCEECGKKYNTMLGYKR

Variants of: B1
Assay: protein stability index of a GFP-peptide fusion (GPS, HEK-293T) (PSI 1-6); higher = more stable
Conditions: c terminus: a fixed tail appended
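Further: lentivirally expressed fusions sorted by FACS into six bins by GFP to DsRed ratio, PSI derived from sequencing read proportions per bin multiplied by bin number.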

| Variant | protein stability index |
| --- | --- |
| FDSAGQAQAAVQGPVGTDFKPLNS [P2D] | 4.73 |
| FNSAGQAQAAVQGPVGTDFKPLNS [P2N] | 4.11 |
| FYSAGQAQAAVQGPVGTDFKPLNS [P2Y] | 3.47 |
| FESAGQAQAAVQGPVGTDFKPLNS [P2E] | 4.71 |
| FLSAGQAQAAVQGPVGTDFKPLNS [P2L] | 3.41 |
| FCSAGQAQAAVQGPVGTDFKPLNS [P2C] | 2.7 |
| FTSAGQAQAAVQGPVGTDFKPLNS [P2T] | 2.17 |
| FQSAGQAQAAVQGPVGTDFKPLNS [P2Q] | 3.81 |
| FASAGQAQAAVQGPVGTDFKPLNS [P2A] | 3.46 |
| FSSAGQAQAAVQGPVGTDFKPLNS [P2S] | 3.16 |
| FHSAGQAQAAVQGPVGTDFKPLNS [P2H] | 2.26 |
| FKSAGQAQAAVQGPVGTDFKPLNS [P2K] | 4.27 |
| FMSAGQAQAAVQGPVGTDFKPLNS [P2M] | 3.93 |
| FWSAGQAQAAVQGPVGTDFKPLNS [P2W] | 3.65 |
| FRSAGQAQAAVQGPVGTDFKPLNS [P2R] | 4.43 |
| FISAGQAQAAVQGPVGTDFKPLNS [P2I] | 2.89 |
| FVSAGQAQAAVQGPVGTDFKPLNS [P2V] | 1.97 |
| FGSAGQAQAAVQGPVGTDFKPLNS [P2G] | 4.14 |
| FFSAGQAQAAVQGPVGTDFKPLNS [P2F] | 3.33 |
| MPSAGQAQAAVQGPVGTDFKPLNS [F1M] | 4.96 |
| LPSAGQAQAAVQGPVGTDFKPLNS [F1L] | 5.03 |
| HPSAGQAQAAVQGPVGTDFKPLNS [F1H] | 4.89 |
| WPSAGQAQAAVQGPVGTDFKPLNS [F1W] | 4.75 |
| NPSAGQAQAAVQGPVGTDFKPLNS [F1N] | 4.98 |

| Variant | protein stability index |
| --- | --- |
| RPSAGQAQAAVQGPVGTDFKPLNS [F1R] | 5.18 |
| CPSAGQAQAAVQGPVGTDFKPLNS [F1C] | 4.68 |
| APSAGQAQAAVQGPVGTDFKPLNS [F1A] | 5.04 |
| VPSAGQAQAAVQGPVGTDFKPLNS [F1V] | 4.92 |
| PPSAGQAQAAVQGPVGTDFKPLNS [F1P] | 4.82 |
| DPSAGQAQAAVQGPVGTDFKPLNS [F1D] | 5.56 |
| SPSAGQAQAAVQGPVGTDFKPLNS [F1S] | 5.11 |
| IPSAGQAQAAVQGPVGTDFKPLNS [F1I] | 4.79 |
| EPSAGQAQAAVQGPVGTDFKPLNS [F1E] | 4.98 |
| GPSAGQAQAAVQGPVGTDFKPLNS [F1G] | 4.88 |
| QPSAGQAQAAVQGPVGTDFKPLNS [F1Q] | 5.11 |
| TPSAGQAQAAVQGPVGTDFKPLNS [F1T] | 5.3 |
| YPSAGQAQAAVQGPVGTDFKPLNS [F1Y] | 3.29 |
| KPSAGQAQAAVQGPVGTDFKPLNS [F1K] | 4.65 |
| FPHAGQAQAAVQGPVGTDFKPLNS [S3H] | 3.35 |
| FPGAGQAQAAVQGPVGTDFKPLNS [S3G] | 3.75 |
| FPKAGQAQAAVQGPVGTDFKPLNS [S3K] | 3.17 |
| FPLAGQAQAAVQGPVGTDFKPLNS [S3L] | 4.05 |
| FPAAGQAQAAVQGPVGTDFKPLNS [S3A] | 3.17 |
| FPDAGQAQAAVQGPVGTDFKPLNS [S3D] | 4.27 |
| FPFAGQAQAAVQGPVGTDFKPLNS [S3F] | 3.03 |
| FPEAGQAQAAVQGPVGTDFKPLNS [S3E] | 3.93 |
| FPIAGQAQAAVQGPVGTDFKPLNS [S3I] | 4.35 |
| FPCAGQAQAAVQGPVGTDFKPLNS [S3C] | 2.61 |

Variants of: B2
Assay: as above
Conditions: c terminus: a fixed tail appended

| Variant | protein stability index |
| --- | --- |
| DPNKMAFGCEECGKKYNTMLGIKR [Y22I] | 2.8 |
| DPNKMAFGCEECGKKYNTMLGEKR [Y22E] | 3.26 |
| DPNKMAFGCEECGKKYNTMLGCKR [Y22C] | 3.69 |
| DPNKMAFGCEECGKKYNTMLGMKR [Y22M] | 3.01 |
| DPNKMAFGCEECGKKYNTMLGKKR [Y22K] | 3.72 |
| DPNKMAFGCEECGKKYNTMLGFKR [Y22F] | 1.92 |
| DPNKMAFGCEECGKKYNTMLGHKR [Y22H] | 2.18 |
| DPNKMAFGCEECGKKYNTMLGLKR [Y22L] | 3.15 |
| DPNKMAFGCEECGKKYNTMLGGKR [Y22G] | 3.07 |
| DPNKMAFGCEECGKKYNTMLGQKR [Y22Q] | 2.72 |
| DPNKMAFGCEECGKKYNTMLGDKR [Y22D] | 3.5 |
| DPNKMAFGCEECGKKYNTMLGNKR [Y22N] | 2.78 |
| DPNKMAFGCEECGKKYNTMLGPKR [Y22P] | 2.02 |
| DPNKMAFGCEECGKKYNTMLGTKR [Y22T] | 2.24 |
| DPNKMAFGCEECGKKYNTMLGSKR [Y22S] | 3.47 |
| DPNKMAFGCEECGKKYNTMLGAKR [Y22A] | 2.53 |
| DPNKMAFGCEECGKKYNTMLGRKR [Y22R] | 3.33 |
| DPNKMAFGCEECGKKYNTMLGWKR [Y22W] | 2.9 |
| DPNKMAFGCEECGKKYNTMLGVKR [Y22V] | 2.94 |
| DPNKMAFGCEECGKKYNTMLGYHR [K23H] | 1.98 |
| DPNKMAFGCEECGKKYNTMLGYER [K23E] | 2.15 |
| DPNKMAFGCEECGKKYNTMLGYWR [K23W] | 1.35 |
| DPNKMAFGCEECGKKYNTMLGYTR [K23T] | 2.34 |

| Variant | protein stability index |
| --- | --- |
| DPNKMAFGCEECGKKYNTMLGYCR [K23C] | 2.21 |
| DPNKMAFGCEECGKKYNTMLGYRR [K23R] | 2.35 |
| DPNKMAFGCEECGKKYNTMLGYNR [K23N] | 2.42 |
| DPNKMAFGCEECGKKYNTMLGYPR [K23P] | 2.31 |
| DPNKMAFGCEECGKKYNTMLGYMR [K23M] | 1.58 |
| DPNKMAFGCEECGKKYNTMLGYFR [K23F] | 2.03 |
| DPNKMAFGCEECGKKYNTMLGYIR [K23I] | 2.95 |
| DPNKMAFGCEECGKKYNTMLGYVR [K23V] | 1.79 |
| DPNKMAFGCEECGKKYNTMLGYYR [K23Y] | 2.22 |
| DPNKMAFGCEECGKKYNTMLGYDR [K23D] | 2.81 |
| DPNKMAFGCEECGKKYNTMLGYLR [K23L] | 2.73 |
| DPNKMAFGCEECGKKYNTMLGYAR [K23A] | 1.98 |
| DPNKMAFGCEECGKKYNTMLGYGR [K23G] | 2.21 |
| DPNKMAFGCEECGKKYNTMLGYSR [K23S] | 2.17 |
| DPNKMAFGCEECGKKYNTMLRYKR [G21R] | 2.94 |
| DPNKMAFGCEECGKKYNTMLPYKR [G21P] | 2.64 |
| DPNKMAFGCEECGKKYNTMLYYKR [G21Y] | 2.06 |
| DPNKMAFGCEECGKKYNTMLHYKR [G21H] | 2.56 |
| DPNKMAFGCEECGKKYNTMLEYKR [G21E] | 3.33 |
| DPNKMAFGCEECGKKYNTMLDYKR [G21D] | 3.13 |
| DPNKMAFGCEECGKKYNTMLWYKR [G21W] | 1.95 |
| DPNKMAFGCEECGKKYNTMLQYKR [G21Q] | 2.48 |
| DPNKMAFGCEECGKKYNTMLKYKR [G21K] | 3.15 |

From the supplement of paper PMC10567573
